Reference: the supplement of paper PMC10065799, “High-throughput profiling of sequence recognition by tyrosine kinases and SH2 domains using bacterial peptide display” (eLife, 2023)

Experiments:
[1] = system: AncSZ; test: phosphorylation enrichment, bacterial display (enrichment ratio); higher = better substrate or ligand; peptides without Tyr show the background
[2] = molecular target: EPHB1 (UniProt P54762); test: as above
[3] = molecular target: EPHB2 (UniProt P29323); test: as above
[4] = molecular target: FGFR1 (UniProt P11362); test: as above
FGFR1, sequence (P11362 whole entry, looked up): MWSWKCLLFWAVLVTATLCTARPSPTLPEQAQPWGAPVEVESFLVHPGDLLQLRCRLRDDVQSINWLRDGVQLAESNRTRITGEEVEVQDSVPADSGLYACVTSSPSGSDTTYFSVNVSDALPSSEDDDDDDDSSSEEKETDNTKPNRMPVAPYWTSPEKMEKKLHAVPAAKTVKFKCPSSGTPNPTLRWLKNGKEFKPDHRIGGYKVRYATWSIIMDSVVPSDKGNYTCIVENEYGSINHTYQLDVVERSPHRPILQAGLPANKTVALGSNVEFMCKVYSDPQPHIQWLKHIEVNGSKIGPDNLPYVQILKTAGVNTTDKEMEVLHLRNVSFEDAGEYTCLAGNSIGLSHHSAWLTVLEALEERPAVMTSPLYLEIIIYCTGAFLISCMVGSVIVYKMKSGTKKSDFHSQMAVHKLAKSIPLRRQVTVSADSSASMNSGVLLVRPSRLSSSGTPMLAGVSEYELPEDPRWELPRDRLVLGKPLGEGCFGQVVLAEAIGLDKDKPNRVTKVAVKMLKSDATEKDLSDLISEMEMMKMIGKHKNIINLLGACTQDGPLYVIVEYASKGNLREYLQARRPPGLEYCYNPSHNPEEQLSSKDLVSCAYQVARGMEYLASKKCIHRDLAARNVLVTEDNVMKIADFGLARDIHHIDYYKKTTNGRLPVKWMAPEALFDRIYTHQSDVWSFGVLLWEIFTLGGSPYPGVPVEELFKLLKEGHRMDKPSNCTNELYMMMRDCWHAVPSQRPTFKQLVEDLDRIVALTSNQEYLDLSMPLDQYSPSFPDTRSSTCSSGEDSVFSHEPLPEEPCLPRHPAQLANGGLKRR

[5] = molecular target: FGFR3 (UniProt P22607); test: as above
[6] = system: Fer (mouse); test: as above
[7] = molecular target: Fes (UniProt P07332); test: as above
[8] = molecular target: Fyn (UniProt P06241); test: as above
Fyn, sequence (P06241 whole entry, looked up): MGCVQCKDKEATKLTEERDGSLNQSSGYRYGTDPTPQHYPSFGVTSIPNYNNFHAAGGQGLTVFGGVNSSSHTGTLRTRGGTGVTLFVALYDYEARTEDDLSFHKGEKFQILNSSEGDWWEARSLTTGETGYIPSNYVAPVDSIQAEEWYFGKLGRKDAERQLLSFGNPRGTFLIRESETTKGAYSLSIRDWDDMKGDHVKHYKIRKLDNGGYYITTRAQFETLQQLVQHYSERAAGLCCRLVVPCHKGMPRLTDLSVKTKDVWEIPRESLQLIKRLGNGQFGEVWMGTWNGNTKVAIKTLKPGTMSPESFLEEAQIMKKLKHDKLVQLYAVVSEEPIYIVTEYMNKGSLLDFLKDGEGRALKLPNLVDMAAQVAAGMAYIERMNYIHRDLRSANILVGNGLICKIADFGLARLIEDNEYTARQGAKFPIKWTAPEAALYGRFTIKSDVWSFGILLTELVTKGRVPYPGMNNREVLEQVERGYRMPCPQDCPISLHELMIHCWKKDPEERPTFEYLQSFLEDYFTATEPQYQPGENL

[9] = molecular target: Hck (UniProt P08631); test: as above
Hck, sequence (P08631 whole entry, looked up): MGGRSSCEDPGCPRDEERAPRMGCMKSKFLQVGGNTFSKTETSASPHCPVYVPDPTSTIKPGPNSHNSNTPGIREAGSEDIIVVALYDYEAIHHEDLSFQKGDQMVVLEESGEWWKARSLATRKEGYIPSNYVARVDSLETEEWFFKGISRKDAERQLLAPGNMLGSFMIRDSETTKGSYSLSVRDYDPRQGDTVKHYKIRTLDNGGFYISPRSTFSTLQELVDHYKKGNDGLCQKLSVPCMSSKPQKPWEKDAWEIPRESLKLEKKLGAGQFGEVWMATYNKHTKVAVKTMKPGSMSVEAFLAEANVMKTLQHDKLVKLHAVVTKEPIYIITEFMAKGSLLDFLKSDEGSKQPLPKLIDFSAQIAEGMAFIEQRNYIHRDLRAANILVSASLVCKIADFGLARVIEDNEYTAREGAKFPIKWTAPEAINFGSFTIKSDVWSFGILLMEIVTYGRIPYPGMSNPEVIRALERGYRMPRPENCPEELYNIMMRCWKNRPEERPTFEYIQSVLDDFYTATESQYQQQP

[10] = molecular target: Jak2 (UniProt O60674); test: as above
Jak2, sequence (O60674 whole entry, looked up): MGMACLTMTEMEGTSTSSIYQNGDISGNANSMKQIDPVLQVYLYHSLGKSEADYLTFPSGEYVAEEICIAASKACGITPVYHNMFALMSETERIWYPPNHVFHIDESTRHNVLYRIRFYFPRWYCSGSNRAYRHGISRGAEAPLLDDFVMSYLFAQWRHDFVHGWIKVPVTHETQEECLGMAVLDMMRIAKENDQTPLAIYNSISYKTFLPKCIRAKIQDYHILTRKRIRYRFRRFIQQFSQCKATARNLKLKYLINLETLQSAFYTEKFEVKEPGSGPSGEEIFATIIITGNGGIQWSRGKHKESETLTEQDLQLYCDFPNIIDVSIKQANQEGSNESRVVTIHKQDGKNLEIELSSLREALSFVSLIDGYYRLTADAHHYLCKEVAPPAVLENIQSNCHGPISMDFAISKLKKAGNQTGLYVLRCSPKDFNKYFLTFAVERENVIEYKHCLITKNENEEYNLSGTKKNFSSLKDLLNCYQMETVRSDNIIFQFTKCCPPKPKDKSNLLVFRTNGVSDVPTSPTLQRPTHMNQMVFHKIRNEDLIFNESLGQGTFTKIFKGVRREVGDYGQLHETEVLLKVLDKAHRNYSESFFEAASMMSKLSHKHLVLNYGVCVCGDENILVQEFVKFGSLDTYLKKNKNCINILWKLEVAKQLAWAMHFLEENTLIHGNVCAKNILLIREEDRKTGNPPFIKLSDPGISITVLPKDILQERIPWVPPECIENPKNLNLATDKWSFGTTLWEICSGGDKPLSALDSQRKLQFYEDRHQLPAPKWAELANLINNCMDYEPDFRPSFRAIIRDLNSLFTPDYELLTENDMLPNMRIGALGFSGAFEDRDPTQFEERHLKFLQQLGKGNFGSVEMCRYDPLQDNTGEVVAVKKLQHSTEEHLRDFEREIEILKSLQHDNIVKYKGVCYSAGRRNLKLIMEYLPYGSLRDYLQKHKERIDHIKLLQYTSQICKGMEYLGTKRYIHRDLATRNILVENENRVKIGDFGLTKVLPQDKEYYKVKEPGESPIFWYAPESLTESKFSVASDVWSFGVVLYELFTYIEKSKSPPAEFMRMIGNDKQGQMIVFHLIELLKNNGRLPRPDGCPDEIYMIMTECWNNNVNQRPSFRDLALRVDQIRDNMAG

[11] = molecular target: MERTK (UniProt Q12866); test: as above
MERTK, sequence (Q12866 whole entry, looked up): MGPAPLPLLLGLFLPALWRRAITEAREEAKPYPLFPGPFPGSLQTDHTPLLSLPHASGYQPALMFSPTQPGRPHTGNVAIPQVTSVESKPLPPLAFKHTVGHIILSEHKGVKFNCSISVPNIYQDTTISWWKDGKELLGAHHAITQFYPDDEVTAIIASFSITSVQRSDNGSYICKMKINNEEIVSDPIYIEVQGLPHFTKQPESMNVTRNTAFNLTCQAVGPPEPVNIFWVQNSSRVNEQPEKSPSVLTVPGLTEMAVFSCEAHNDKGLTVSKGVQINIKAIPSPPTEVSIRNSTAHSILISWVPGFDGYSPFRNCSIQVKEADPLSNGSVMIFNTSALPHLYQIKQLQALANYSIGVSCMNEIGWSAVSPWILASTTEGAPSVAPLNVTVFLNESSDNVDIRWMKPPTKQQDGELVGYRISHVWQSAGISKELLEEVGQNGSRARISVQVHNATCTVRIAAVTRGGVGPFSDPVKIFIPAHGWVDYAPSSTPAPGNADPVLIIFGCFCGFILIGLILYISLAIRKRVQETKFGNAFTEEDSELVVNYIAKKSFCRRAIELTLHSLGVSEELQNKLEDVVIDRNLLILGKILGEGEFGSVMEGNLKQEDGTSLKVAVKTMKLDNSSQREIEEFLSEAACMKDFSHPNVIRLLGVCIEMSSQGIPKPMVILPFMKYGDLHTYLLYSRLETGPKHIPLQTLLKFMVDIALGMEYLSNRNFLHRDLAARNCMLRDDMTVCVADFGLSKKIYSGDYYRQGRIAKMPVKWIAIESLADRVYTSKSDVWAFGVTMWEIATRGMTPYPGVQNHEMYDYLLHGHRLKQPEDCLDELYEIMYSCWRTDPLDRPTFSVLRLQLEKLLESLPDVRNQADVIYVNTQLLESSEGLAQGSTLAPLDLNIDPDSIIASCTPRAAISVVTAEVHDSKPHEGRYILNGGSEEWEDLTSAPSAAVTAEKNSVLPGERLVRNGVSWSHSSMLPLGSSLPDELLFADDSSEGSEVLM

[12] = system: c-Abl (mouse); test: as above
[13] = system: c-Src; test: as above
[14] = molecular target: Grb2 SH2 (UniProt P62993); test: SH2 binding enrichment of the phosphorylated peptide, bacterial display (enrichment ratio); higher = better substrate or ligand; peptides without Tyr show the background
[15] = molecular target: SHP2-C SH2; test: as above
[16] = molecular target: c-Src SH2; test: as above
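Throughout, for SH2 binding enrichment of the phosphorylated peptide, bacterial display: peptide library displayed on the E. coli surface as eCPX fusions, selected cells deep-sequenced, score is each peptide's frequency after selection divided by its frequency in the input.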
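Throughout, for phosphorylation enrichment, bacterial display: 11-residue human phosphosite peptides and single-mutation variants displayed on the E. coli surface, counted by deep sequencing, each peptide's frequency after selection divided by its frequency in the unselected input library; frequency after pTyr selection over input frequency; kinase dosed for 20-30% of maximal phosphorylation in three min.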

EPHB1, sequence (P54762 whole entry, looked up): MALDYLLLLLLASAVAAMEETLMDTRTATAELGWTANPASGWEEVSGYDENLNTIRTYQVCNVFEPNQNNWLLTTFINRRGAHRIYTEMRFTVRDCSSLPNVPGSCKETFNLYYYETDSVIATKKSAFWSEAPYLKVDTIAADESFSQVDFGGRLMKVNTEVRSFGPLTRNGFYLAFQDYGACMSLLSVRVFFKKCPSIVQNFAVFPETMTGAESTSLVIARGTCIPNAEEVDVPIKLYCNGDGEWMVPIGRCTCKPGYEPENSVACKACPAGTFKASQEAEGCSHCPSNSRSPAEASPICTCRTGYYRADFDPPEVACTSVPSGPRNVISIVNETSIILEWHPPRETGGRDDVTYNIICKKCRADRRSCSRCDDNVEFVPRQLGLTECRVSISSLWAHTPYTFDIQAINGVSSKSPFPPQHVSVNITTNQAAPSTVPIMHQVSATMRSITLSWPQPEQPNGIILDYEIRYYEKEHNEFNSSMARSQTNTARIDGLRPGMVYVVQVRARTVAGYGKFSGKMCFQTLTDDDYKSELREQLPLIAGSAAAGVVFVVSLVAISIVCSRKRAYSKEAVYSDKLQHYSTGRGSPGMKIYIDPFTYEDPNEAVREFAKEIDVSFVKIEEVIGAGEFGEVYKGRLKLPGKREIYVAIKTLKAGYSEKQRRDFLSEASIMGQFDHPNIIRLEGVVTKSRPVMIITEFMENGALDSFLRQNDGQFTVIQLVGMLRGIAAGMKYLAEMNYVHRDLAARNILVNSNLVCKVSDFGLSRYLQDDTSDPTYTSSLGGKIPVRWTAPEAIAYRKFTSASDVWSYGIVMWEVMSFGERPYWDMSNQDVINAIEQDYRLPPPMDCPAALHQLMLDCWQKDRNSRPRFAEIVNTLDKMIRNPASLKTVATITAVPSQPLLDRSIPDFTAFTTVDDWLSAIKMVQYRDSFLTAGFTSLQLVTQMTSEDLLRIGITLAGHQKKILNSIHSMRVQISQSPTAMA

Sequence	SH2 binding enrichment [14]	SH2 binding enrichment [15]	SH2 binding enrichment [16]	phosphorylation enrichment [1]	phosphorylation enrichment [2]	phosphorylation enrichment [3]	phosphorylation enrichment [4]	phosphorylation enrichment [5]	phosphorylation enrichment [6]	phosphorylation enrichment [7]	phosphorylation enrichment [8]	phosphorylation enrichment [9]	phosphorylation enrichment [10]	phosphorylation enrichment [11]	phosphorylation enrichment [12]	phosphorylation enrichment [13]
GEHSIYSTVNN [CD55_Y266_C267S]	0.651	1.59	0.718	0.792	9.99	13	0.584	0.52	14.5	1.5	10.3	10.9	0.536	7.23	6.92	7.42
GEIQEYGAPLD [ABCC1_Y1508_S1512L]	0.822	0.734	0.454	1.15	0.74	0.716	0.598	0.798	0.528	1.09	0.514	0.485	1.03	0.467	0.743	0.485
GESLTYASTTF [C1orf162_Y120]	0.752	0.679	0.649	0.592	0.5	0.644	0.401	0.408	0.52	0.551	2.25	2.68	0.505	0.574	1.19	2.63
GFDHSYFFIAT [ESD_Y262_YF]	0.813	0.697	0.621	1.52	0.63	0.603	7.11	5.72	0.589	1.28	0.525	0.626	5.69	0.67	1.15	0.558
GFEVVYMTEPI [HSP90AB1_Y512]	0.85	0.694	0.605	1.37	0.527	0.537	0.625	0.879	0.403	1.34	0.557	0.668	1.4	0.405	0.693	0.8
GFVEDYRPPFY [ACVRL1_Y421_I417F]	0.96	1.03	0.626	1.33	0.495	0.491	0.56	0.754	0.541	1.13	0.517	0.496	0.969	0.52	0.868	0.522
GGCQEYTGAPY [NAXD_Y85]	0.935	0.748	0.608	1.35	0.636	0.587	0.627	0.843	0.524	1.06	0.525	0.577	0.83	0.409	0.699	0.52
GGSTFYIDTNA [ACTL6A_Y69_P66S_YF]	0.735	0.952	0.562	0.923	0.523	0.48	0.528	0.651	0.475	0.987	0.4	0.461	1.01	0.477	0.734	0.39

Further lines, with some results ahead:

SH2 binding enrichment [14]	SH2 binding enrichment [15]	SH2 binding enrichment [16]	Sequence	phosphorylation enrichment [1]	phosphorylation enrichment [2]	phosphorylation enrichment [3]	phosphorylation enrichment [4]	phosphorylation enrichment [5]	phosphorylation enrichment [6]	phosphorylation enrichment [7]	phosphorylation enrichment [8]	phosphorylation enrichment [9]	phosphorylation enrichment [10]	phosphorylation enrichment [11]	phosphorylation enrichment [12]	phosphorylation enrichment [13]
0.737	0.664	0.562	GDFSRYDEGSG [RECQL5_Y484]	0.889	0.523	0.481	0.471	0.662	0.439	1.16	0.502	0.494	0.905	0.513	0.799	0.534
0.972	0.838	0.887	GEFHVYRHLRW [PRKRIP1_Y82_R87W]	1	0.499	0.458	0.442	0.682	0.413	1.08	0.428	0.429	0.995	0.345	0.723	0.329
1.12	0.851	0.667	GEKKAYVRLAP [RPL23A_Y137]	0.548	0.363	0.323	0.425	0.43	0.398	0.606	0.37	0.337	0.468	0.373	0.628	0.296
0.818	0.457	0.393	GEVKAYGAGLL [TH_Y419]	0.497	0.309	0.459	0.453	0.371	0.319	0.503	0.363	0.404	0.498	0.342	0.451	0.342
0.836	0.519	0.56	GFQPDYGQPAG [SYP_Y278_YF]	0.583	0.443	0.431	0.478	0.483	0.206	0.686	0.435	0.728	0.554	0.404	0.509	0.294
0.796	0.801	0.452	GFSDPYVKASL [SYT3_Y470]	0.568	0.329	0.436	0.444	0.4	0.488	0.722	0.374	0.38	0.646	0.391	0.544	0.393
0.872	0.64	0.596	GGDQPYSGAGD [TYRO3_Y828_R824G]	0.673	0.501	0.481	0.485	0.698	0.436	0.791	0.453	0.474	0.775	0.408	0.562	0.432
0.666	0.42	0.514	GGPAGYLRRAS [PKLR_Y38]	0.717	0.406	0.398	0.405	0.442	0.377	0.678	0.636	0.458	0.529	0.528	0.671	0.429
